{"source": "patent US7425614B2", "about": "“Neuroprotective therapeutics preventing ERK/MAPK activation through the NMDA receptor” (Children's Medical Center Corporation, priority 2003, dated 2008)", "format_in_all_cases": "cell-based, rat", "key": {"[1]": {"system": "NMDA receptor", "experiment": "whole-cell recordings of NMDAR-mediated currents in cultured hippocampal neurons"}, "[2]": {"system": "NMDA receptor", "experiment": "evoked NMDA EPSCs in organotypic cultures of hippocampal slices", "method": "Organotypic cultures of hippocampal slices were prepared as described (Becq, H., et al. (1999) J. Neurosci. Res. 58, 553-566) according to modified technique of Stoppini et al. (J. Neurosci. Methods 37, 173-182 (1991)). Hippocampal slices (400 μm) were cut from postnatal 7-day-old rat brains and incubated in culture medium in 5% CO2. Infections were performed on the 6th day of slice incubation by local pressure injection of virus via a patch pipette (tip diameter ˜1 μm) into the CA1 region of the hippocampus.\nFor electrophysiological recordings, slices were placed in a recording chamber and perfused with ACSF including in mM: 119 NaCl, 2.5 KCl, 2 CaCl2, 2 MgCl2, 26 NaHCO3, 1 NaH2PO4, 11 glucose, 0.01 bicuculline, 0.01 CNQX, 0.002 2-chloroadenosine (pH 7.4), in 5% CO2/95% O2. Synaptic responses were evoked by bipolar electrode with monophasic voltage pulses (1-10 V, 200 μs). The stimulating electrodes were placed over Schaeffer collateral fibers. NMDA evoked EPSCs were recorded at different holding potentials before, during, and after ifenprodil application in order to measure the I-V relationship. For analysis, at least 5 NMDA-evoked EPSCs were averaged for every experimental condition."}, "[3]": {"system": "NR2B", "experiment": "immunocytochemistry of NR2B and PSD-95 clusters in cultured neurons", "description": "Coverslips with cultured neurons were fixed with 4% paraformaldehyde, permeabilized with 0.3% Triton X-100, and blocked in 10% goat serum in PBS. A rabbit polyclonal antibody against the N terminus of the NR2B subunit of the NMDA receptor (AB1557P, Chemicon, Temecula, Calif.) was used for detection in neurons expressing GFP and RasGRF1-BD. These antibodies could not be used for study of the NR2B subunit distribution in neurons expressing NR2B-BD since they recognized the expressed construct. The distribution of NR2A/B subunit was determined using polyclonal antibody AB 1548 (Chemicon). A mouse monoclonal antibody (clone K 28/43, Upstate, Waltham, Mass.) was used to detect PSD-95. Secondary antibodies were the same as that used for detection of ERK and MAP2. To quantify the distribution of clusters in transfected cells, we first focused on dendrites of neurons expressing the EGFP fluorescent construct. Thereafter, fluorescent images of GFP, NR2B, and PSD-95 were acquired confocally (60×; NA 1.4 objective, zoom 5). Cluster density and brightness were analyzed with the MetaMorph Imaging System (Universal Imaging, Westchester, Pa.). Ten neurons were analyzed from each experiment (3-4 dendritic regions for each neuron)."}, "[4]": {"system": "hippocampal neurons", "experiment": "Assay I: glutamate excitotoxicity in primary cultures of dissociated hippocampal neurons", "conditions": "20 minute exposure to Glutamate (100 μM) and Glycine (10 μM); expression in neurons; n=5", "method": "(§1) (A) Survival of hippocampal neurons in culture exposed to Glutamate (100 μM) and Glycine (10 μM) for a 20 minute period. 14 div neuronal cultures were transfected with GFP, NR2B-BD or RasGRF1-BD 24 hours prior to analysis. The neuronal cultures were then incubated with glutamate for 20 minutes, washed with culture media and returned to the incubator for an additional 24 hours. The cells were then fixed with PFA and stained with a neuronal specific antibody, Map2. […] (B) Percentage of propidium iodide-resistant (surviving) neurons in organotypic hippocampal slices (P5+7div) expressing GFP, NR2B-BD or […] in control conditions and after 20 minutes exposure to NMDA (50 μM). The fluorescence of propidium iodide (PI) was measured 24 hours later. PI enters damaged cells and is a convenient tool to determine neuronal cell death. For PI staining, the slices were incubated in culture medium containing 0.1 mg/ml PI for 2 h. GFP, NR2B-BD and RafGRF-BD were expressed using the SindBis expression system. Mean±SEM. N=3.\nAssay I: primary cultures of dissociated hippocampal neurons (FIG. 7(A)). This method may be used to analyze the mechanisms of glutamate-dependent excitotoxicity (see e.g., Medina, et al., Eur J Neurosci. (1999) 11(4): 1167-78). Briefly, neuronal cell death was induced by a 20 minute exposure to Glutamate (100 μM) and Glycine (10 μM). […]"}, "[5]": {"system": "CA1 pyramidal neurons", "experiment": "Assay II: propidium iodide (PI) resistance in organotypic hippocampal slice cultures", "conditions": "NMDA (50 μM) 20 minutes or ischemia; compared to non-transfected or GFP transfected control cells", "method": "as §1, with “GFP, NR2B-BD and RafGRF-BD were expressed using the SindBis expression system. Mean±SEM. N=3.” left out\nAssay II: propidium iodide (PI) resistance. […] Cell death was measured as cellular uptake of PI (3,8-diamino-5-[3-([…])propyl]-6-phenyl phenanthridinium diiodide at 24 and 48 h after exposure to NMDA or ischemia. As shown in FIG. 7(B), the expression of both NR2B-BD and RasGRF1-BD increased the percentage of neuronal survival (e.g., the percentage of PI negative neurons) as compared to non-transfected or GFP transfected control cells."}}, "data": [{"molecule": "NR2B-BD: peptide of amino acids 886-1310 of the NR2B C-terminal domain that binds RasGRF1; used as NusA or EGFP fusion (protein, left off: small tags and cut ends, used as NusA or EGFP fusion) SPTATMNNTHSNILRLLRTAKNMANLSGVNGSPQSALDFIRRESSVYDISEHRRSFTHSDCKSYNNPPCEENLFSDYISEVERTFGNLQLKDSNVYQDHYHHHHRPHSIGSTSSIDGLYDCDNPPFTTQPRSISKKPLDIGLPSSKHSQLSDLYGKFSFKSDRYSGHDDLIRSDVSDISTHTVTYGNIEGNAAKRRKQQYKDSLKKRPASAKSRREFDEIELAYRRRPPRSPDHKRYFRDKEGLRDFYLDQFRTKENSPHWEHVDLTDIYKERSDDFKRDSVSGGGPCTNRSHLKHGTGEKHGVVGGVPAPWEKNLTNVDWEDRSGGNFCRSCPSKLHNYSSTVAGQNSGRQACIRCEACKKAGNLYDISKDNSLQELDQPAAPVAVTSNASSTKYPQSPTNSKAQKKNRNKLRRQHSYDTFVDL", "values": [{"measurement": "average amplitude of the whole-cell current induced by bath application of NMDA", "setting": "[1]; 100 μM NMDA, neurons expressing BD fusion constructs", "result": "did not affect"}, {"measurement": "proportion of ifenprodil-sensitive (NR2B) current stimulated by NMDA bath application", "setting": "[1]; cultured neurons, 3 μM ifenprodil", "result": "neither RasGRF1-BD nor NR2B-BD expression changed"}, {"measurement": "mean amplitude and kinetics of the spontaneous NMDAR-mediated excitatory postsynaptic currents", "setting": "[1]; neurons expressing BD fusion constructs", "result": "did not affect"}, {"measurement": "portion of the ifenprodil-sensitive component of the evoked EPSCs", "setting": "[2]", "result": "Neither of the expressed peptides decreased"}, {"measurement": "average number NR2B-positive clusters", "setting": "[3]; compared to cells expressing GFP alone", "result": "did not reveal any changes"}, {"measurement": "localization or density of NR2B or PSD-95", "setting": "[3]; cultured neurons expressing blocking peptides", "result": "did not change"}, {"measurement": "decrease of neuronal cell death induced by glutamate and glycine", "setting": "[4]", "result": "47±2", "unit": "%"}, {"measurement": "percentage of neuronal survival (PI negative neurons)", "setting": "[5]", "result": "increased"}]}]}
